# From the supplement of paper PMC9170038
# System: MS2 coat protein
# Experiment: apparent KD of MS2 coat protein; designed switch direction (-1 OFF switch, 1 ON switch): 1; higher = weaker reporter binding
# Summary of the method: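 On Illumina chips, designed RNA switches with common flanks were made by stalled E. coli RNA polymerase. Titrations with SNAP-549-labelled MS2 coat protein, doubling from 0.7 or 1.5 nM to 3 µM, were done with no input, with 200 uM small-molecule ligand, or with an oligonucleotide input. Apparent KD is the median per design over clusters, from curve fits of normalised cluster fluorescence.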
# [1] = Eterna round: R95, input ligand: FMN 200 uM
# [2] = Eterna round: R95, input ligand: microRNA oligo, concentration not stated
# [3] = Eterna round: R95, input ligand: none
# [4] = input ligand: microRNA oligo, concentration not stated
Sequence,apparent KD of MS2 coat protein [1],apparent KD of MS2 coat protein [2],apparent KD of MS2 coat protein [3],apparent KD of MS2 coat protein (input ligand: FMN 200 uM),apparent KD of MS2 coat protein [4],apparent KD of MS2 coat protein (input ligand: none)
AUAAAACAUGAGGAUCACCCAUGUCUCCAAAGUCGAGGAUAUGGGCAAAUAAUAUAAGAACCAGAAGGCGAAUAAU [SS1 Teenbexe 2] (puzzle: Same State 1),177 nM,179 nM,374 nM,–,–,–
"AUAAAUAACACAGGAUAUCCGCACGGGUAGUGCGGAGAAGGGUGAACGUCGGCUCUCGCCAACAUGAGGAUCACCCAUGUAAAG [Letiusle] (Eterna round: R96, puzzle: Same State NG 1)",–,–,–,512 nM,27.7 nM,41.1 nM
"AUCAAAAGAGGAGGAUAUGCAGAGGAUCACCCUGUAGAAGGCCACAGAGGAGGAUAUGCAGAGGAUCACCCUGUAGAAGGCCUC [pwkr ssNG DX.16] (Eterna round: R96, puzzle: Same State NG 1)",–,–,–,37.3 nM,156 nM,189 nM
"AUCCGGAAGCGAGGAUAUGCAGAGGAUCACCCUGCAGAAGGCGCGAUCGCGAGGAUAUGCAGAGGAUCACCCUGCAGAAGGCGC [pwkr ssNG DX.31] (Eterna round: R96, puzzle: Same State NG 1)",–,–,–,15.5 nM,20.3 nM,25.1 nM
"AUCCUAAACACAGGAUAUCCCAGUCAUGAUCUGGGAGAAGGGUGGCCACAUGAGGAUCACCCAUGUGAAGUGCCAGAGGCACGA [MOD3 Xexeraed] (Eterna round: R96, puzzle: Same State NG 1)",–,–,–,397 nM,359 nM,582 nM
"AUGAAGAAUUAAGGAUAUUGAUUACAUAUGUUUAACAUGAGGAUCACCCAUGUGGGUUGCGGUAUCGAGAAGGUAAAUUACUAG [JL SSNG2 1.48] (Eterna round: R96, puzzle: Same State NG 2)",–,–,–,150 nM,99.6 nM,128 nM
"AUGCCAAAUGGAGGAUAUGGAGCCUUAUUGGCUCCAGAAGGUCAGACAUGAGGAUCACCCAUGUGGCAGUGGUCUAAUGACCAC [Eli NG1ss - 39] (Eterna round: R96, puzzle: Same State NG 1)",–,–,–,126 nM,392 nM,638 nM
AUUAAACAUGAGGAUCACCCAUGUAAUAUUAUGGGAGGAUAUGCGAAUUUAAUUAAUUAAGCAGAAGGCCUAAUUA [Mat - Same State 1 - D101] (puzzle: Same State 1),–,106 nM,–,–,–,–
AUUAAACAUGAGGAUCACCCAUGUCAACAAUGUCGAGGAUAUGGGCAAAUAAAAUAAGAACCAGAAGGCGAAUAAU [salish99_ss1_r3_076] (puzzle: Same State 1),39.9 nM,426 nM,303 nM,–,–,–
"AUUAAUAAUCGAGGAUAUCACGUCGAAUAGACGUGAGAAGGCGAUCAUAACAUGAGGAUCACCCAUGUAUUACAUGAAAUUAAU [SSNG1/4-B4] (Eterna round: R96, puzzle: Same State NG 1)",–,–,–,22.4 nM,20.5 nM,38.1 nM
"AUUAAUAAUCUAGGAUAUCACGUCGAUUAGACGUGAGAAGGAGAUCAUAACAUGAGGAUCACCCAUGUAUUACAUGAAGUUAAU [SSNG1/7-B2] (Eterna round: R96, puzzle: Same State NG 1)",–,–,–,27.5 nM,28.8 nM,38.1 nM
"AUUACUAACAUAGGAUAUCAUGCGAAAAUUGCGUGAGAAGGGUGGACACUGUCAUUCUCGGAGCACAUGAGGAUCACCCAUGUG [SameState NG1 #70] (Eterna round: R96, puzzle: Same State NG 1)",–,–,–,80.6 nM,42.4 nM,59 nM
"AUUACUAACAUAGGAUAUCAUGCGAAAAUUGCGUGAGAAGGGUGGACACUGUCUUUCUCGGAGCACAUGAGGAUCACCCAUGUG [SameState NG1 #69] (Eterna round: R96, puzzle: Same State NG 1)",–,–,–,81.4 nM,41.5 nM,65 nM
